The assay concerns the target FLAG-HA-Twi1p-WT (Tetrahymena thermophila) (UniProt Q8MXZ9). Kind of assay: co-IP.

On to Giw1p (natural protein), for which the amount co-precipitated after 100 μg/mL RNase A, against the untreated lysate was determined as 60%.

These data come from publication PMC2845462.
